# Test results: paper PMC9909335, “Structure-guided design of a potent Clostridioides difficile toxin A inhibitor” (Frontiers in Microbiology, 2023)
# B1: VHH A20 (A20.1) (VHH)
# VHH: QVQLVESGGGLAQAGGSLRLSCAASGRTFSMDPMAWFRQPPGKEREFVAAGSSTGRTTYYADSVKGRFTISRDNAKNTVYLQMNSLKPEDTAVYYCAAAPYGANWYRDEYAYWGQGTQVTVSS
# B2: VHH A26 (A26.8) (VHH)
# VHH: QVKLEESGGGLVQAGGSLRLSCAASERTFSRYPVAWFRQAPGAEREFVAVISSTGTSTYYADSVKGRFTISRDNAKVTVYLQMNNLKREDTAVYFCAVNSQRTRLQDPNEYDYWGQGTQVTVSS
# Columns and labels:
# Conditions in all cases: both partners purified
# [1] = target: T1, TcdA-A2 fragment (C-terminal CROPs domain fragment of TcdA, aa 2,556–2,710 of TcdA10463) (Clostridioides difficile; paper: …); assay: SPR
# T1 construct: source: recombinant (Greco et al., 2006)
# [2] = target: T2, Clostridioides difficile toxin A (TcdA), full-length (Clostridioides difficile, strain of …, UniProt P16154); assay: ELISA
# T2 construct: also called full-length TcdA
# [3] = target: T1, TcdA-A2 fragment (C-terminal CROPs …); assay: SEC-MALS
Binder,"T1/2 (SPR-calculated half-life, 0.693/kd) [1] [min]",koff [1] [s⁻¹],EC50 [2] [nM],stoichiometry N [3]
B1,1.8,0.0075,0.194 ± 0.013,1 Ab per Ag (1:1)
B2,0.6,0.025,14.6,1 Ab per Ag (1:1)
